Experimental findings from patent US7037667 are described below.

This series relates to fluorescein thiocarbamoyl-labeled (FTC) casein.

Chain of GST-TMPRSS2 protease domain (AA 255-492) (chain, as listed by the source): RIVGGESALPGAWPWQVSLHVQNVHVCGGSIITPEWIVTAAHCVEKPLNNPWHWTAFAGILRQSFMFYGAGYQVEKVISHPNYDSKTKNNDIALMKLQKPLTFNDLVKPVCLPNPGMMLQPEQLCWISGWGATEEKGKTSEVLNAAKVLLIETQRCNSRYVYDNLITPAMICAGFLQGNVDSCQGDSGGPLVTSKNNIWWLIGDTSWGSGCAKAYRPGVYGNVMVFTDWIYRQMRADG

In the case of “GST-TMPRSS2 protease domain (AA 255-492)”, the “protease activity, fluorescence of FTC-casein (EnzChek protease assay)” value is “purified recombinant GST-20P1F12/TMPRSS2 can cleave a universal substrate, namely casein in a dose dependent manner”.
